The record followed here is patent publication US20150344570A1 (published 2015).

In this assay the target is T1, FcγRIIa R (FcγRIIa, allotype with Arg at position 131), extracellular domain with C-terminal His tag (human, UniProt P12318 34-217).
T1 construct: extracellular domain; also called FcγRIIa R type; 2aR
T1 sequence (looked up): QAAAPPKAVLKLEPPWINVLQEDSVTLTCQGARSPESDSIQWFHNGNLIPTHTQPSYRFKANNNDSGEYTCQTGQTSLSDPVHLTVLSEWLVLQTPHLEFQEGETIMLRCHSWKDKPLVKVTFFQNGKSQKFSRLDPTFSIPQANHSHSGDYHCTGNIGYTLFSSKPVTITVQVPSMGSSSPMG
Description: SPR (Biacore), antibody captured on antigen peptide chip, FcγR as analyte; relative binding.

B1: GpH7-A5/GpH7-B3 variant T335_07I/GpL16-k0 (antibody, human IgG1, kappa)
heavy 1: not shown
heavy 2: not shown
light: DIVMTQSPLSLPVTPGEPASISCQASESLVHSNRNTYLHWYLQKPGQSPQLLIYKVSNRFSGVPDRFSGSGSGTDFTLKISRVEAEDVGVYYCSQNTHVPPTFGQGTKVEIERTVAAPSVFIFPPSDEQLKSGTASVVCLLNNFYPREAKVQWKVDNALQSGNSQESVTEQDSKDSTYSLSSTLTLSKADYEKHKVYACEVTHQGLSSPVTKSFNRGEC
notes: also called He Ab
Turning to B1, the He/Con_2aR is 109 % of GpH7-A5/GpH7-B3/GpL16-k0 (=100).

B2: GpH7-A5/GpH7-B3 variant T335_20W/GpL16-k0 (antibody, human IgG1, kappa)
heavy 1: not shown
heavy 2: not shown
light: DIVMTQSPLSLPVTPGEPASISCQASESLVHSNRNTYLHWYLQKPGQSPQLLIYKVSNRFSGVPDRFSGSGSGTDFTLKISRVEAEDVGVYYCSQNTHVPPTFGQGTKVEIERTVAAPSVFIFPPSDEQLKSGTASVVCLLNNFYPREAKVQWKVDNALQSGNSQESVTEQDSKDSTYSLSSTLTLSKADYEKHKVYACEVTHQGLSSPVTKSFNRGEC
notes: also called He Ab
As to B2, the He/Con_2aR was 109 % of GpH7-A5/GpH7-B3/GpL16-k0 (=100).

B3: GpH7-A5/GpH7-B3 variant T335_12R/GpL16-k0 (antibody, human IgG1, kappa)
heavy 1: not shown
heavy 2: not shown
light: DIVMTQSPLSLPVTPGEPASISCQASESLVHSNRNTYLHWYLQKPGQSPQLLIYKVSNRFSGVPDRFSGSGSGTDFTLKISRVEAEDVGVYYCSQNTHVPPTFGQGTKVEIERTVAAPSVFIFPPSDEQLKSGTASVVCLLNNFYPREAKVQWKVDNALQSGNSQESVTEQDSKDSTYSLSSTLTLSKADYEKHKVYACEVTHQGLSSPVTKSFNRGEC
notes: also called He Ab
Take B3: the He/Con_2aR was 100 % of GpH7-A5/GpH7-B3/GpL16-k0 (=100).

B4: GpH7-A5/GpH7-B3 variant T335_15Y/GpL16-k0 (antibody, human IgG1, kappa)
heavy 1: not shown
heavy 2: not shown
light: DIVMTQSPLSLPVTPGEPASISCQASESLVHSNRNTYLHWYLQKPGQSPQLLIYKVSNRFSGVPDRFSGSGSGTDFTLKISRVEAEDVGVYYCSQNTHVPPTFGQGTKVEIERTVAAPSVFIFPPSDEQLKSGTASVVCLLNNFYPREAKVQWKVDNALQSGNSQESVTEQDSKDSTYSLSSTLTLSKADYEKHKVYACEVTHQGLSSPVTKSFNRGEC
notes: also called He Ab
Consider B4, for which the He/Con_2aR was 111 % of GpH7-A5/GpH7-B3/GpL16-k0 (=100).

B5: GpH7-A5/GpH7-B3 variant Y296_06M/GpL16-k0 (antibody, human IgG1, kappa)
heavy 1: not shown
heavy 2: not shown
light: DIVMTQSPLSLPVTPGEPASISCQASESLVHSNRNTYLHWYLQKPGQSPQLLIYKVSNRFSGVPDRFSGSGSGTDFTLKISRVEAEDVGVYYCSQNTHVPPTFGQGTKVEIERTVAAPSVFIFPPSDEQLKSGTASVVCLLNNFYPREAKVQWKVDNALQSGNSQESVTEQDSKDSTYSLSSTLTLSKADYEKHKVYACEVTHQGLSSPVTKSFNRGEC
notes: also called He Ab
On to B5, for which the He/Con_2aR was 101 % of GpH7-A5/GpH7-B3/GpL16-k0 (=100).

B6: GpH7-A5/GpH7-B3 variant V266_06M/GpL16-k0 (antibody, human IgG1, kappa)
heavy 1: not shown
heavy 2: not shown
light: DIVMTQSPLSLPVTPGEPASISCQASESLVHSNRNTYLHWYLQKPGQSPQLLIYKVSNRFSGVPDRFSGSGSGTDFTLKISRVEAEDVGVYYCSQNTHVPPTFGQGTKVEIERTVAAPSVFIFPPSDEQLKSGTASVVCLLNNFYPREAKVQWKVDNALQSGNSQESVTEQDSKDSTYSLSSTLTLSKADYEKHKVYACEVTHQGLSSPVTKSFNRGEC
notes: also called He Ab
Consider B6, for which the He/Con_2aR was 150 % of GpH7-A5/GpH7-B3/GpL16-k0 (=100).

B7: GpH7-A5/GpH7-B3 variant Y296_04F/GpL16-k0 (antibody, human IgG1, kappa)
heavy 1: not shown
heavy 2: not shown
light: DIVMTQSPLSLPVTPGEPASISCQASESLVHSNRNTYLHWYLQKPGQSPQLLIYKVSNRFSGVPDRFSGSGSGTDFTLKISRVEAEDVGVYYCSQNTHVPPTFGQGTKVEIERTVAAPSVFIFPPSDEQLKSGTASVVCLLNNFYPREAKVQWKVDNALQSGNSQESVTEQDSKDSTYSLSSTLTLSKADYEKHKVYACEVTHQGLSSPVTKSFNRGEC
notes: also called He Ab
B7: the He/Con_2aR was 109 % of GpH7-A5/GpH7-B3/GpL16-k0 (=100).

B8: GpH7-A5/GpH7-B3 variant T335_16H/GpL16-k0 (antibody, human IgG1, kappa)
heavy 1: not shown
heavy 2: not shown
light: DIVMTQSPLSLPVTPGEPASISCQASESLVHSNRNTYLHWYLQKPGQSPQLLIYKVSNRFSGVPDRFSGSGSGTDFTLKISRVEAEDVGVYYCSQNTHVPPTFGQGTKVEIERTVAAPSVFIFPPSDEQLKSGTASVVCLLNNFYPREAKVQWKVDNALQSGNSQESVTEQDSKDSTYSLSSTLTLSKADYEKHKVYACEVTHQGLSSPVTKSFNRGEC
notes: also called He Ab
B8: the He/Con_2aR was 108 % of GpH7-A5/GpH7-B3/GpL16-k0 (=100).

B9: GpH7-A5/GpH7-B3 variant Y296_07I/GpL16-k0 (antibody, human IgG1, kappa)
heavy 1: not shown
heavy 2: not shown
light: DIVMTQSPLSLPVTPGEPASISCQASESLVHSNRNTYLHWYLQKPGQSPQLLIYKVSNRFSGVPDRFSGSGSGTDFTLKISRVEAEDVGVYYCSQNTHVPPTFGQGTKVEIERTVAAPSVFIFPPSDEQLKSGTASVVCLLNNFYPREAKVQWKVDNALQSGNSQESVTEQDSKDSTYSLSSTLTLSKADYEKHKVYACEVTHQGLSSPVTKSFNRGEC
notes: also called He Ab
B9: the He/Con_2aR is 101 % of GpH7-A5/GpH7-B3/GpL16-k0 (=100).

B10: GpH7-A5/GpH7-B3 variant T335_19Q/GpL16-k0 (antibody, human IgG1, kappa)
heavy 1: not shown
heavy 2: not shown
light: DIVMTQSPLSLPVTPGEPASISCQASESLVHSNRNTYLHWYLQKPGQSPQLLIYKVSNRFSGVPDRFSGSGSGTDFTLKISRVEAEDVGVYYCSQNTHVPPTFGQGTKVEIERTVAAPSVFIFPPSDEQLKSGTASVVCLLNNFYPREAKVQWKVDNALQSGNSQESVTEQDSKDSTYSLSSTLTLSKADYEKHKVYACEVTHQGLSSPVTKSFNRGEC
notes: also called He Ab
As for B10, the He/Con_2aR was 106 % of GpH7-A5/GpH7-B3/GpL16-k0 (=100).

B11: GpH7-A5/GpH7-B3 variant Y296_10E/GpL16-k0 (antibody, human IgG1, kappa)
heavy 1: not shown
heavy 2: not shown
light: DIVMTQSPLSLPVTPGEPASISCQASESLVHSNRNTYLHWYLQKPGQSPQLLIYKVSNRFSGVPDRFSGSGSGTDFTLKISRVEAEDVGVYYCSQNTHVPPTFGQGTKVEIERTVAAPSVFIFPPSDEQLKSGTASVVCLLNNFYPREAKVQWKVDNALQSGNSQESVTEQDSKDSTYSLSSTLTLSKADYEKHKVYACEVTHQGLSSPVTKSFNRGEC
notes: also called He Ab
On to B11, for which the He/Con_2aR is 103 % of GpH7-A5/GpH7-B3/GpL16-k0 (=100).

B12: GpH7-A5/GpH7-B3 variant Y296_09D/GpL16-k0 (antibody, human IgG1, kappa)
heavy 1: not shown
heavy 2: not shown
light: DIVMTQSPLSLPVTPGEPASISCQASESLVHSNRNTYLHWYLQKPGQSPQLLIYKVSNRFSGVPDRFSGSGSGTDFTLKISRVEAEDVGVYYCSQNTHVPPTFGQGTKVEIERTVAAPSVFIFPPSDEQLKSGTASVVCLLNNFYPREAKVQWKVDNALQSGNSQESVTEQDSKDSTYSLSSTLTLSKADYEKHKVYACEVTHQGLSSPVTKSFNRGEC
notes: also called He Ab
For B12, the He/Con_2aR is 106 % of GpH7-A5/GpH7-B3/GpL16-k0 (=100).

B13: GpH7-A5/GpH7-B3 variant T335_18N/GpL16-k0 (antibody, human IgG1, kappa)
heavy 1: not shown
heavy 2: not shown
light: DIVMTQSPLSLPVTPGEPASISCQASESLVHSNRNTYLHWYLQKPGQSPQLLIYKVSNRFSGVPDRFSGSGSGTDFTLKISRVEAEDVGVYYCSQNTHVPPTFGQGTKVEIERTVAAPSVFIFPPSDEQLKSGTASVVCLLNNFYPREAKVQWKVDNALQSGNSQESVTEQDSKDSTYSLSSTLTLSKADYEKHKVYACEVTHQGLSSPVTKSFNRGEC
notes: also called He Ab
With B13, the He/Con_2aR is 106 % of GpH7-A5/GpH7-B3/GpL16-k0 (=100).

B14: GpH7-A5/GpH7-B3 variant T335_10E/GpL16-k0 (antibody, human IgG1, kappa)
heavy 1: not shown
heavy 2: not shown
light: DIVMTQSPLSLPVTPGEPASISCQASESLVHSNRNTYLHWYLQKPGQSPQLLIYKVSNRFSGVPDRFSGSGSGTDFTLKISRVEAEDVGVYYCSQNTHVPPTFGQGTKVEIERTVAAPSVFIFPPSDEQLKSGTASVVCLLNNFYPREAKVQWKVDNALQSGNSQESVTEQDSKDSTYSLSSTLTLSKADYEKHKVYACEVTHQGLSSPVTKSFNRGEC
notes: also called He Ab
As to B14, the He/Con_2aR is 111 % of GpH7-A5/GpH7-B3/GpL16-k0 (=100).

B15: GpH7-A5/GpH7-B3 variant T335_13S/GpL16-k0 (antibody, human IgG1, kappa)
heavy 1: not shown
heavy 2: not shown
light: DIVMTQSPLSLPVTPGEPASISCQASESLVHSNRNTYLHWYLQKPGQSPQLLIYKVSNRFSGVPDRFSGSGSGTDFTLKISRVEAEDVGVYYCSQNTHVPPTFGQGTKVEIERTVAAPSVFIFPPSDEQLKSGTASVVCLLNNFYPREAKVQWKVDNALQSGNSQESVTEQDSKDSTYSLSSTLTLSKADYEKHKVYACEVTHQGLSSPVTKSFNRGEC
notes: also called He Ab
For B15, the He/Con_2aR is 110 % of GpH7-A5/GpH7-B3/GpL16-k0 (=100).

B16: GpH7-A5/GpH7-B3 variant Y296_13S/GpL16-k0 (antibody, human IgG1, kappa)
heavy 1: not shown
heavy 2: not shown
light: DIVMTQSPLSLPVTPGEPASISCQASESLVHSNRNTYLHWYLQKPGQSPQLLIYKVSNRFSGVPDRFSGSGSGTDFTLKISRVEAEDVGVYYCSQNTHVPPTFGQGTKVEIERTVAAPSVFIFPPSDEQLKSGTASVVCLLNNFYPREAKVQWKVDNALQSGNSQESVTEQDSKDSTYSLSSTLTLSKADYEKHKVYACEVTHQGLSSPVTKSFNRGEC
notes: also called He Ab
As to B16, the He/Con_2aR is 102 % of GpH7-A5/GpH7-B3/GpL16-k0 (=100).
